Results reported in article PMC6638984, “Increased association between Epstein-Barr virus EBNA2 from type 2 strains and the transcriptional repressor BS69 restricts EBNA2 activity” (PLoS Pathogens, 2019).

Legend:
[1] = biological target: BS69 CC-MYND (Homo sapiens) (UniProt Q15326); details: cited from earlier work
[2] = biological target: BS69 coiled-coil MYND domain (BS69_(CC-MYND), amino acids 480-602) (human) (UniProt Q15326); test: ITC; EBNA2 polypeptide titrated into 0.1 mM BS69_(CC-MYND) in the cell, 19 x 2.0 μl injections, 25°C, 20 mM Tris-HCl, 100 mM NaCl, 1 mM TCEP, pH 7.5; one-site (one event) model; n calculated for monomeric proteins
[3] = biological target: BS69 coiled-coil MYND domain (BS69_(CC-MYND), amino acids 480-602) (human) (UniProt Q15326); test: ITC; EBNA2 polypeptide (0.3 or 0.6 mM) titrated into 0.1 mM BS69_(CC-MYND) in the cell, 19 x 2.0 µl injections, 25°C, 20 mM Tris-HCl, 100 mM NaCl, 1 mM TCEP, pH 7.5; one-site (one event) model; n on monomer concentrations; mean of 3 experiments

Chain of BS69 coiled-coil MYND domain (BS69_(CC-MYND), amino acids 480-602) (human) (Q15326 480-602): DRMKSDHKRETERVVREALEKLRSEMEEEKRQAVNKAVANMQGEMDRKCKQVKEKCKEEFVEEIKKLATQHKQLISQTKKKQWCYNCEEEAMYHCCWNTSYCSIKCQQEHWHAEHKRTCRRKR
Chain of type 1 EBNA2 polypeptide T1 EBNA2_(381-445) (domain or fragment) (P12978 381-445): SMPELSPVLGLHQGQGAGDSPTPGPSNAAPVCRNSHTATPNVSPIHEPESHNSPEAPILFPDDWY
Chain of BS69 CC-MYND (Homo sapiens) (Q15326 480-602): as the sequence (Q15326 480-602) above
Chain of type 1 EBNA2 polypeptide T1 EBNA2_(381-455) (domain or fragment) (P12978 381-455): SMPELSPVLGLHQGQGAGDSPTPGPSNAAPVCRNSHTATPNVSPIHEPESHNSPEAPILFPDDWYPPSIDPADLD

Q: For “EBNA2 type 1 motif 2 peptide motif 2 (from UniProt P12978)”, which Kd [1] is on record?
A: Its Kd is 35 µM.

Q: With “type 1 EBNA2 polypeptide T1 EBNA2_(381-445) (domain or fragment)” as the substance, how does the Kd [2] read?
A: Its Kd is 0.95 µM.

Q: What about the stoichiometry N [2] of the same substance?
A: The stoichiometry N was 0.42.

Q: Which stoichiometry N [3] does the source give for “type 1 EBNA2 polypeptide T1 EBNA2_(381-455) (domain or fragment)” here?
A: Its stoichiometry N is 0.38.
